# In patent US20040166183A1, “Methods and means for preventing or treating inflammation or pruritis” (priority 1998, published 2004):
# T1: bovine pancreatic trypsin (Bos taurus, UniProt P00760)
# T1 construct: purchased Serva; host or cells: bovine pancreas
# T1 sequence (P00760 24-246): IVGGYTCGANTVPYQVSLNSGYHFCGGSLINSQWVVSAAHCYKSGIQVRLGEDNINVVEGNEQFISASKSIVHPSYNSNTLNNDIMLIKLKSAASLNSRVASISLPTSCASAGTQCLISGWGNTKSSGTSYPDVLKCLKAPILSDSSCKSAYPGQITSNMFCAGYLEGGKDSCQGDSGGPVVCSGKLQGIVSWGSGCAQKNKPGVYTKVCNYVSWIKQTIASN
# T2: lesional elastase activity in psoriasis, contact dermatitis and atopic dermatitis (Homo sapiens, UniProt P08246)
# T2 sequence (P08246 30-267): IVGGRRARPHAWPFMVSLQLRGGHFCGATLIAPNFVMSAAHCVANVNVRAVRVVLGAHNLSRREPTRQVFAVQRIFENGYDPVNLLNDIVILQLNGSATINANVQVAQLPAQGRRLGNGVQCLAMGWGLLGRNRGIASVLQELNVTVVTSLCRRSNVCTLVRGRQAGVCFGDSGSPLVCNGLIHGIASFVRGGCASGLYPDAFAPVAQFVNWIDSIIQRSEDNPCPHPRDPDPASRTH
# T3: papaine (Carica papaya, UniProt P00784)
# T3 construct: purchased Sigma
# T3 sequence (P00784 134-345): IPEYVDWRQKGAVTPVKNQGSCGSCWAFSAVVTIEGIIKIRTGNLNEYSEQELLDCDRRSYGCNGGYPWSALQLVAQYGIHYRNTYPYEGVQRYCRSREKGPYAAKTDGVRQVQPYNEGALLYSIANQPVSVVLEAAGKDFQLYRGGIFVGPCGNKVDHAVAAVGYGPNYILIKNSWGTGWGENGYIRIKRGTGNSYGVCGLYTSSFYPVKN
# B1: ovomucoid: protease inhibitor, 1% (w/v) in 0.1 M phosphate buffer pH 7.6 (protein, UniProt P01005 25-210, looked up)
# Ovomucoid: AEVDCSRFPNATDKEGKDVLVCNKDLRPICGTDGVTYTNDCLLCAYSIEFGTNISKEHDGECKETVPMNCSSYANTTSEDGKVMVLCNRAFNPVCGTDGVTYDNECLLCAHKVEQGASVDKRHDGGCRKELAAVSVDCSEYPKPDCTAEDRPLCGSDNKTYGNKCNFCNAVVESNGTLTLSHFGKC
# B2: STI: Trypsin inhibitor II-from Soybean (T-9003; Sigma) (protein, UniProt P01070 25-205, looked up)
# Trypsin inhibitor A: DFVLDNEGNPLENGGTYYILSDITAFGGIRAAPTGNERCPLTVVQSRNELDKGIGTIISSPYRIRFIAEGHPLSLKFDSFAVIMLCVGIPTEWSVVEDLPEGPAVKIGENKDAMDGWFRLERVSDDEFNNYKLVFCPQQAEDDKCGDIGISIDHDDGTRRLVVSKNKPLVVQFQKLDKESL
# B3: STI-A: STI-type I-S Sigma T 9003 (protein, UniProt P01070 25-205, looked up)
# Trypsin inhibitor A: B2 Trypsin inhibitor A
# Key:
# [1] = tested on: peri-stomal and peri-anal irritation caused by feces; settings: applied topically; cited from earlier work
# [2] = tested on: therapy-resistant atopic dermatitis; settings: small study; cited from earlier work
# [3] = tested on: proteolytic activity in feces of CD patients; test: Inhibition of proteolytic activity in feces of CD patients (azocasein); assay type: biochemical, human; settings: n = 4, inhibitor added to feces 1:2000 diluted, 20 h incubated with substrate
# From the text: Fecal samples from twenty-seven patients with Crohn's disease (CD) were studied. Twelve patients, aged 27-58 years, had undergone intestinal surgery 3-12 years previously; locations of the resections were terminal ileum, ileum and caecum, and colon. A second group of patients was not operated; the principal sites of inflammation were ileum, ileum and colon, and colon. The diagnosis CD was established with the usual clinical, radiological and histopathological critria. All patients were outpatients.
# (§1) Feces was frozen and stored at −20° C. within 3 h of passage. […] Samples of 1 g were transferred to 24 vol of 0.1 M phosphate buffer pH 7.6 and homogenized (‘Stomacher’, Lab blender 400). Coarse particles were removed from the homogenates by gauze filtration (Utermohlen, refolded to 2 layers); these samples are further referred to as ‘fecal homogenates’.
# Proteolytic activity was determined in the fecal homogenates in appropriate dilutions (up to 250-fold) in 0.1 M phosphate buffer (pH 7.6). Penicilline (0.1% w/v) was added to prevent bacterial growth. In the more recent inhibition tests no penicillin was used. […] The absorption of the samples was measured at 450 nm and compared with standard curves obtained from solutions of azocasein. Proteolytic activity was expressed as milligrams azocasein hydrolysed during 1 h per gram dry or wet weight of sample. […]
# [4] = tested on: proteolytic activity in feces of ileostomy dog / pouch dog; test: Inhibition of proteolytic activity in feces of ileostomy and pouch dogs (azocasein); assay type: biochemical
# Method: Fecal samples from 20 colectomized dogs, purebred Beagles (Harlan) were collected. Three ileostomy groups were studied. In ten dogs a standard Brooke ileostomy was constructed by subtotal colectomy. In five dogs a valveless ileal reservoir (pouch) was fashioned by a side-to-side iso-antiperistaltic anastomosis. After a recovery period of 2 weeks a schedule of increasing periods of occlusion was started, except for 5 dogs. The maximum tolerable occlusion time was 2.5-3 h for the ileostomy group and 4-7 h for the reservoir group. In five dogs a continent ileostomy (Kock's pouch) was constructed, which was emptied 2-5 times per 24 hours by catheterization.
# as §1
# Proteolytic activity was determined in the fecal homogenates in appropriate dilutions (up to 250-fold) in 0.1 M phosphate buffer (pH 7.6). Penicilline (0.1% w/v) was added to prevent bacterial growth. In the more recent inhibition tests no penicillin was used. […] The reaction was stopped by addition of 0.2 ml 10% (w/v) trichloroacetic acid (TCA); after 10 min at room temperature unhydrolysed azocasein, bacteria and other particles were removed by centrifugation at 10,000 rpm during 10 min. Then 0.1 ml of the clear supernatant was transferred to 0.1 ml of 1 N NaOH in flatbottom 24 wells microplates. To the blank assays azocasein was added after incubation an addition of TCA. The absorption of the samples was measured at 450 nm and compared with standard curves obtained from solutions of azocasein. Proteolytic activity was expressed as milligrams azocasein hydrolysed during 1 h per gram dry or wet weight of sample. Each diluted sample was tested for other than enzymatic substrate hydrolysis after heating at 80° C. for 10 min. Spontaneous substrate hydrolysis was tested by incubation of the substrate with buffer.
# (§2) In most of the experiments the inhibitor was added to feces (diluted 1:25 in buffer), mixed for 5-15 min and added to the substrate; PJ-powder was added to undiluted feces (1:1) and after mixing, diluted (1:25) with buffer. In each experiment controls were assayed (sterilized feces, sterilized inhibitors, buffer solutions).
# [5] = target: T1, bovine pancreatic trypsin; test: Effect of protease inhibitors on purified enzymes: trypsin (azocasein); assay type: biochemical; settings: for inhibition of trypsin activity: preliminary experiments; for % Inhibition of the proteolytic activity, trypsin: STI, STI-A, -B, -C 0.125% end concentration, enzyme 0.02%, Trasylol undil., PJ: 1 g PJ powder mixed with 2 ml and with 4 ml buffer
# Method: (§3) Proteolytic activity was determined in the fecal homogenates in appropriate dilutions (up to 250-fold) in 0.1 M phosphate buffer (pH 7.6). Penicilline (0.1% w/v) was added to prevent bacterial growth. In the more recent inhibition tests no penicillin was used. Samples of 0.1 ml were incubated with 0.1 ml 1% (w/v) azocasein (Sigma) in phosphate buffer at 37° C. during 1 h. The reaction was stopped by addition of 0.2 ml 10% (w/v) trichloroacetic acid (TCA); after 10 min at room temperature unhydrolysed azocasein, bacteria and other particles were removed by centrifugation at 10,000 rpm during 10 min. Then 0.1 ml of the clear supernatant was transferred to 0.1 ml of 1 N NaOH in flatbottom 24 wells microplates. To the blank assays azocasein was added after incubation an addition of TCA. The absorption of the samples was measured at 450 nm and compared with standard curves obtained from solutions of azocasein. Proteolytic activity was expressed as milligrams azocasein hydrolysed during 1 h per gram dry or wet weight of sample. Each diluted sample was tested for other than enzymatic substrate hydrolysis after heating at 80° C. for 10 min. Spontaneous substrate hydrolysis was tested by incubation of the substrate with buffer.
# as §2
# bovine pancreatic trypsin (Serva)
# (§4) All enzymes were used in a concentration of 0.2% (w/v) in buffer.
# (§5) enzyme concentration was 0.02%, inhibitor concentration (end concentration) was 0.125%.
# [6] = target: T4, bovine pancreatic α-chymotrypsin (Bos taurus, UniProt P00766); test: Effect of protease inhibitors on purified enzymes: chymotrypsin (azocasein); assay type: biochemical; settings: for inhibition of α-chymotrypsin activity: preliminary experiments; for % Inhibition of the proteolytic activity, chymotrypsin: STI, STI-A, -B, -C 0.125% end concentration, enzyme 0.02%, Trasylol undil., PJ: 1 g PJ powder mixed with 2 ml and with 4 ml buffer
# T4 construct: purchased Merck, Sigma; host or cells: bovine pancreas
# Method: as §3, §2
# bovine pancreatic α-chymotrypsin (Merck, Sigma)
# as §4, §5
# [7] = tested on: bovine pancreatic elastase; test: Effect of protease inhibitors on purified enzymes: elastase (azocasein); assay type: biochemical; settings: STI, STI-A, -B, -C 0.125% end concentration, enzyme 0.02%; Trasylol undil.; PJ: 1 g PJ powder mixed with 2 ml and with 4 ml buffer
# Method: as §3, with “buffer. […]” for “buffer.”
# [8] = tested on: supernatant from feces of a patient with an ileum reservoir with a high proteolytic activity, on skin; test: Skin test on the fore-arm with fecal supernatant and STI; assay type: in vivo, human; settings: 7 h incubation on fore-arm
# Method: Skin tests were performed on the ventral part of the fore-arm. The following solutions were tested: 1. supernatant from feces of a patient with an ileum reservoir with a high proteolytic activity; 2. the same supernatant, but sterilised; 3. supernatant with 0.25% STI (w/v) and 4. 0.25% STI in buffer. Two hundred μl of each solution were placed on folded cambric on the skin and covered with plastic and adhesion wound pad. Total incubation time was 7 h, but after 3 and 5 h 100 μl buffer was added to each of the test patches to prevent dehydration.
# After removing the pads and the cambric the skin was carefully cleaned with tap water and judged immediately and after 1-18 h.
# [9] = target: T2, lesional elastase activity in psoriasis, contact dermatitis and atopic dermatitis; settings: in vitro; Wiedow et al, Dermatol 1992; cited from earlier work
# pronase = test: Effect of protease inhibitors on purified enzymes: pronase (azocasein); assay type: biochemical; settings: STI-A, -B, -C 0.125% end concentration, enzyme 0.02%; PJ: 1 g PJ powder mixed with 2 ml and with 4 ml buffer
# Method: as §3, with “buffer. […]” for “buffer.”
# papaine = target: T3, papaine; test: Effect of protease inhibitors on purified enzymes: papain (azocasein); assay type: biochemical; settings: STI-A, -B, -C 0.125% end concentration, enzyme 0.02%; PJ: 1 g PJ powder mixed with 2 ml and with 4 ml buffer
# Method: as §3, with “buffer. […]” for “buffer.”
# [10] = Ileostomy dog, n = 1*, inhibitor added to feces 1:2000 diluted, 20 h incubated with substrate, STI 1%
# [11] = dog, n = 3°, inhibitor added to feces diluted 1:100, 2 h incubated, STI 1%
Molecule,"% inhibition of the proteolytic activity [4, 10] [%]","% inhibition of the proteolytic activity [4, 11] [%]",inhibition of trypsin activity [5],inhibition of α-chymotrypsin activity [6],"% Inhibition of the proteolytic activity, trypsin [5] [%]","% Inhibition of the proteolytic activity, chymotrypsin [6] [%]","% Inhibition of the proteolytic activity, elastase [7] [%]",also measured
sucralfate,–,–,–,–,–,–,–,peri-stomal and peri-anal irritation caused by feces [1]: reduce
alpha1-proteinase inhibitor: protease inhibitor cited from the literature,–,–,–,–,–,–,–,effect on therapy-resistant atopic dermatitis [2]: wound healing effect
B1,93,84,larger part,larger part,–,–,–,"% inhibition of the proteolytic activity [3]: 68%; % inhibition of the proteolytic activity ([4]; dog, n = 1†, undiluted feces + inhibitor (3 + 1), mixing for 2 h, then diluted 1:100): 52%"
B2,93,84,–,–,99,99,15,"% inhibition of the proteolytic activity ([4]; STI 0.25%, dog, n = 3°, feces diluted 1:100, 2 h incubated): 63%; % inhibition of the proteolytic activity ([4]; STI 0.5%, dog, n = 3°, feces diluted 1:100, 2 h incubated): 61%; % inhibition of the proteolytic activity ([4]; STI 0.75%, dog, n = 3°, feces diluted 1:100, 2 h incubated): 45%; inhibition of the proteolytic activity ([4]; STI in a concentration of 1% (w/v)): > 80%; skin reaction ([8]; location 3: fecal supernatant with 0.25% STI (w/v), supernatant alone: moderate redness, papulas, some vesiculas): slight redness that disappeared within 60 min; skin reaction ([8]; location 4: 0.25% STI in buffer): No reaction; effect on lesional elastase activity [9]: inhibitotory effect"
B3,–,–,larger part,larger part,100,80,50,"% Inhibition of the proteolytic activity, pronase (pronase): 0%; % Inhibition of the proteolytic activity, papain (papaine): 0%"
